Source: patent US20250339466A1 (published 2025)

T1: human BCMA on BCMA overexpressing CHO cells (human, UniProt Q02223 1-184)
T1 construct: also called hBCMA CHO; Hu BCMA (FACS)
T1 chain: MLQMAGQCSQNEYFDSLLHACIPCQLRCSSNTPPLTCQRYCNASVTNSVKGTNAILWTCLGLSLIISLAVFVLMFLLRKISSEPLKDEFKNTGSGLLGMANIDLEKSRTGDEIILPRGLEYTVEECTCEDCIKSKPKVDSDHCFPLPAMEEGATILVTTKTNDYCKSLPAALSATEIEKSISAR


Experiments:
[1] = biological target: T1, human BCMA on BCMA overexpressing CHO …; test: flow cytometry, periplasmic extract of scFv on cells with human BCMA
[2] = biological target: T2, Bio-cyBCMA-His (biotinylated cynomolgus BCMA with His tag) (cynomolgus, UniProt A0A2K5UD97 1-53, Biotinylated (site not stated); C- or N-terminal His tag not carried in the letters); test: ELISA, periplasmic extract of scFv on biotinylated cynomolgus BCMA-His
T2 construct: not shown: biotin label
T2 sequence (A0A2K5UD97 entry or part of it limits assumed, form in doubt): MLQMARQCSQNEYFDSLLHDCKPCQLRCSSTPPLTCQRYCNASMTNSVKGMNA

[3] = biological target: Bio-huBCMA-His (biotinylated human BCMA with His tag) (human) (UniProt Q02223); test: ELISA, periplasmic extract of scFv on biotinylated human BCMA-His

Binder	PE FACS % Binding Hu BCMA [1]	PE Elisa Bio-cyBCMA-His [2]	PE ELISA Bio-huBCMA-His [3]
anti-BCMA scFv clone from phage display, periplasmic extract (Table 3, second row; VH printed there as SEQ ID NO: 26, VL as SEQ ID NO: 25) (scFv) QITLRESGGDVVQPGRSLRLSCAASGFTFSSYAIHWVRQAPGKGLEWVAVTWHDGSNKYYAESVMGRFTISRDNSKNTLYLHMNSLRAEDTGVYYCARAKFGEPQYFQHWGQGTLVTVSSDIVMTQSPSFLSASVGDRVTITCRASQGINNYLAWYQQKPGIAPKLLIYAASTLQSGVPSRFGGSGSGTEFTLTISSLQPEDFATYYCQQLKSYPFTFGPGTKVEIK	54.6%	0.122	
anti-BCMA scFv clone from phage display, periplasmic extract (Table 3, third row; VH printed there as SEQ ID NO: 10, VL as SEQ ID NO: 27) (scFv) EVQLVESGGDVVQPGRSLRLSCAASGFTFSSYAIHWVRQAPGKGLEWVAVTWHDGSNKYYAESVMGRFTISRDNSKNTLYLHMNSLRAEDTGVYYCARAKFGEPQYFQHWGQGTTVTVSSDIVMTQSPSFLSASVGDRVTITCRASQGISSYLAWYQQKPGKAPKLLIYAASTLQSGVPSRFSGSGSGTEFTLTISSLQPEDFATYYCQQLNSYPFTFGPGTKVDIK	47.2%	0.126	
anti-BCMA scFv clone from phage display, periplasmic extract (Table 3, first row; VH printed there as SEQ ID NO: 26, VL as SEQ ID NO: 23) (scFv) QITLRESGGDVVQPGRSLRLSCAASGFTFSSYAIHWVRQAPGKGLEWVAVTWHDGSNKYYAESVMGRFTISRDNSKNTLYLHMNSLRAEDTGVYYCARAKFGEPQYFQHWGQGTLVTVSSDIVMTQSPSFLSASVGDRVTITCRASQGISSYLAWYQQKPGKAPKLLIYAASTLQSGVPSRFSGSGSGTEFTLTISSLQPEDFATYYCQQLNSYPWTFGQGTKVDIK	89%	0.147	
anti-BCMA scFv clone from phage display, periplasmic extract (Table 3, first row; VH printed there as SEQ ID NO: 26, VL as SEQ ID NO: 23) (scFv, V domains shown, part only, linker not stated) VH: QITLRESGGDVVQPGRSLRLSCAASGFTFSSYAIHWVRQAPGKGLEWVAVTWHDGSNKYYAESVMGRFTISRDNSKNTLYLHMNSLRAEDTGVYYCARAKFGEPQYFQHWGQGTLVTVSS VL: DIVMTQSPSFLSASVGDRVTITCRASQGISSYLAWYQQKPGKAPKLLIYAASTLQSGVPSRFSGSGSGTEFTLTISSLQPEDFATYYCQQLNSYPWTFGQGTKVDIK			1.1
anti-BCMA scFv clone from phage display, periplasmic extract (Table 3, third row; VH printed there as SEQ ID NO: 10, VL as SEQ ID NO: 27) (scFv, V domains shown, part only, linker not stated) VH: EVQLVESGGDVVQPGRSLRLSCAASGFTFSSYAIHWVRQAPGKGLEWVAVTWHDGSNKYYAESVMGRFTISRDNSKNTLYLHMNSLRAEDTGVYYCARAKFGEPQYFQHWGQGTTVTVSS VL: DIVMTQSPSFLSASVGDRVTITCRASQGISSYLAWYQQKPGKAPKLLIYAASTLQSGVPSRFSGSGSGTEFTLTISSLQPEDFATYYCQQLNSYPFTFGPGTKVDIK			0.516
anti-BCMA scFv clone from phage display, periplasmic extract (Table 3, second row; VH printed there as SEQ ID NO: 26, VL as SEQ ID NO: 25) (scFv, V domains shown, part only, linker not stated) VH: QITLRESGGDVVQPGRSLRLSCAASGFTFSSYAIHWVRQAPGKGLEWVAVTWHDGSNKYYAESVMGRFTISRDNSKNTLYLHMNSLRAEDTGVYYCARAKFGEPQYFQHWGQGTLVTVSS VL: DIVMTQSPSFLSASVGDRVTITCRASQGINNYLAWYQQKPGIAPKLLIYAASTLQSGVPSRFGGSGSGTEFTLTISSLQPEDFATYYCQQLKSYPFTFGPGTKVEIK			1.11
